{
  "source": "paper doi:10.1101/2020.09.10.281741",
  "key": {"[1]": {"biological_target": "His6-HMW1ct (C-terminal region of the HMW1A adhesin of H. influenzae, non-glycosylated) (H. influenzae)", "test": "SPR"}, "[2]": {"biological_target": "Glc-HMW1ct (glycosylated HMW1ct, mixture of 7,8,9,10-Glc glycoforms) (H. influenzae)", "test": "SPR"}},
  "data": [
    {"substance": "ApNGT-His6 (N-glycosyltransferase from Actinobacillus pleuropneumoniae) (from UniProt A3N2T3 1-620) (enzyme)", "values": [
      {"measurement": "Kd", "setting": "[1]", "result": 5.85, "unit": "µM"},
      {"measurement": "Kd", "setting": "[2]", "result": 9.81, "unit": "µM"}
    ]}
  ]
}
